# Earlier results, collected in publication PMC6518430.
# What was measured:
# IL-23R (Homo sapiens) = IL-23R (Homo sapiens) (UniProt Q5VWK5)
# IL-12Rβ1 (Homo sapiens) = IL-12Rβ1 (Homo sapiens) (UniProt P42701)
# Sequence of IL-23 (Q9NPF7 20-189): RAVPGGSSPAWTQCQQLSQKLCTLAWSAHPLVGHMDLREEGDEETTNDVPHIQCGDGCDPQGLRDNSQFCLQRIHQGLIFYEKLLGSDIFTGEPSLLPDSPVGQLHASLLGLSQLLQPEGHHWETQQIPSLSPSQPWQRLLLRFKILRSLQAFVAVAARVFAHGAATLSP
# Sequence of IL-23 (P29460 23-328, further chain): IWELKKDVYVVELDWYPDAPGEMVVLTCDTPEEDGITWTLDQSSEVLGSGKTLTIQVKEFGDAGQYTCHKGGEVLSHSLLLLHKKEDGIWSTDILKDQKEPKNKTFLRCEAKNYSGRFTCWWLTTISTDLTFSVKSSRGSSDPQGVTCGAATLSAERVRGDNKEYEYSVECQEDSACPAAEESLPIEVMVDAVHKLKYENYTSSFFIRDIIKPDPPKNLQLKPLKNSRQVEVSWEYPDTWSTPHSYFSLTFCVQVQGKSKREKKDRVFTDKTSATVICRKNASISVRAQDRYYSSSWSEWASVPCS
# Sequence of IL-23R (Homo sapiens) (Q5VWK5 24-355): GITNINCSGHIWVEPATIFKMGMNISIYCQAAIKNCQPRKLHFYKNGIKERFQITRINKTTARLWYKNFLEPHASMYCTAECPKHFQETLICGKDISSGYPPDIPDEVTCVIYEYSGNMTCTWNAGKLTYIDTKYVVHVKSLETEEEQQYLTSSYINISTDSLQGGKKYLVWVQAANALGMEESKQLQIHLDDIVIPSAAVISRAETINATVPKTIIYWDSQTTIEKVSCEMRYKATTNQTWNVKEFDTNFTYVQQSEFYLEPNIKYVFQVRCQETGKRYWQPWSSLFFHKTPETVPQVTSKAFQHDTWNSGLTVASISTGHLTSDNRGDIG
substance,measurement,setting,value
IL-23 (from UniProt Q9NPF7),Kd,IL-23R (Homo sapiens),0.044 µM
same,Kd,IL-12Rβ1 (Homo sapiens),2 µM
